Tests used:
[1] = molecular target: aardvark bombesin receptor subtype-3 (aardvark (Orycteropus afer)); experiment: radioligand binding; displacement of 50 pM [125I]-Tyr-NMB by unlabeled peptide on disaggregated transfected HEK293 cells; 1 h at 21°C; 24.5 mM HEPES pH 7.4, 98 mM NaCl; bound tracer separated by centrifugation
[2] = molecular target: spotted gar bombesin receptor subtype-3 (spotted gar (Lepisosteus oculatus)); experiment: as above
[3] = molecular target: chicken bombesin receptor subtype-3 (chicken (Gallus gallus)); experiment: as above
[4] = molecular target: turtle bombesin receptor subtype-3 (turtle (Chrysemys picta)); experiment: as above
[5] = molecular target: spotted gar bombesin receptor subtype-3 (spotted gar (Lepisosteus oculatus)); experiment: radioligand binding; displacement of 50 pM [125I]-Tyr42-GRP by unlabeled peptide on disaggregated transfected HEK293 cells; 1 h at 21°C; 24.5 mM HEPES pH 7.4, 98 mM NaCl; bound tracer separated by centrifugation
[6] = molecular target: chicken bombesin receptor subtype-3 (chicken (Gallus gallus)); experiment: as above
[7] = molecular target: turtle bombesin receptor subtype-3 (turtle (Chrysemys picta)); experiment: as above

Sequence of turtle bombesin receptor subtype-3 (turtle (Chrysemys picta)) (main, as listed by the source): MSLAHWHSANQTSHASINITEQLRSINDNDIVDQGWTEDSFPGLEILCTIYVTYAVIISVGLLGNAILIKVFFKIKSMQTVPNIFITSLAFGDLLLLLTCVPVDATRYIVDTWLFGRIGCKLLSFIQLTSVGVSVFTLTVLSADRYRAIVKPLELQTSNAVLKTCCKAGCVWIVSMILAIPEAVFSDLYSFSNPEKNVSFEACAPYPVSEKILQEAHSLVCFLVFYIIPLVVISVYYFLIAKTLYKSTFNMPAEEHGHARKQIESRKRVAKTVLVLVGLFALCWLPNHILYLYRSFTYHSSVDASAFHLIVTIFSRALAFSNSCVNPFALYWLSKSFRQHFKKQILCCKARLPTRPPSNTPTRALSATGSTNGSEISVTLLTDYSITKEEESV
Sequence of spotted gar bombesin receptor subtype-3 (spotted gar (Lepisosteus oculatus)) (main, as listed by the source): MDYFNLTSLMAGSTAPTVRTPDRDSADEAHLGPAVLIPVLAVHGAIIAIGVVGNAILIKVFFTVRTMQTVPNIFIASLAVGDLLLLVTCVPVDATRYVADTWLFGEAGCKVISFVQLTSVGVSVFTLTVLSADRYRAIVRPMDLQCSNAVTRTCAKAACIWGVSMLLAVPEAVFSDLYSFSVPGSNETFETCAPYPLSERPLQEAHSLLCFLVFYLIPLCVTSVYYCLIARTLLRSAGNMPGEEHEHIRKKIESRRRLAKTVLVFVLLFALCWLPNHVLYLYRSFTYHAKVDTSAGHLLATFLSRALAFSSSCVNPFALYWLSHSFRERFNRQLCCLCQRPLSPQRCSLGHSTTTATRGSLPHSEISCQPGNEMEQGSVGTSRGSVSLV
Sequence of aardvark bombesin receptor subtype-3 (aardvark (Orycteropus afer)) (P32247 other isoform, or with tags, fused parts or gaps): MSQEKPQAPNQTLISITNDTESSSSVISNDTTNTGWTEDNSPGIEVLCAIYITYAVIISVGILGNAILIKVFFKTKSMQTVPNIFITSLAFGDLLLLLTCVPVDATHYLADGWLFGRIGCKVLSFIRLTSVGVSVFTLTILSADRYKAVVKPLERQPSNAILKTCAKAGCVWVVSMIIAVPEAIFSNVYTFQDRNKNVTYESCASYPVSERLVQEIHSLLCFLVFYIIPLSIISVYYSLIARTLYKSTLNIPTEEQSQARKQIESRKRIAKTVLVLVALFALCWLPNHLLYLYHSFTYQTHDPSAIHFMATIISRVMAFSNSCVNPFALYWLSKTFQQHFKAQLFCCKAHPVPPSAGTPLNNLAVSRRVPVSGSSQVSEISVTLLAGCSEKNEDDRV

Ki [1]: > 1000 nM
IC50 [2]: 2.65 nM
IC50 [3]: 2.26 nM
IC50 [4]: 2.82 nM
IC50 [5]: 1.74 nM
IC50 [6]: 1.35 nM
IC50 [7]: 1.14 nM
Substance: neuromedin B, unlabeled ligand peptide of the radioligand binding assays

Reference: PMC6422423, “Constitutively active BRS3 is a genuinely orphan GPCR in placental mammals” (PLoS Biology, 2019)
